Assay results reported in patent publication US20090136503A1 (BEIJING COTIMES BIOTECH, published 2009).

Columns and labels:
[1] = target: Human IgG1 (control antigen) (human); test: ELISA; human IgG1 captured on goat anti-human IgG, antibody at 2 µg/ml
[2] = target: T1, TRAIL-R2 on the surface of human tumor cells (human, UniProt O14763 56-440); test: flow cytometry on Jurkat cells (said to express TRAIL-R2 only, not TRAIL-R1), PE goat anti-mouse IgG1
T1 construct: whole, on cells; also called DR5; CD262

[3] = target: T2, TRAIL-R3-Fc fusion protein (human, UniProt O14798 26-221, limits assumed); test: ELISA: plate coated with TRAIL-R3-Fc at 1 µg/ml, HRP goat anti-mouse IgG, TMB
T2 construct: The origin of the protein is not described; also called TRAIL-R3-Fc fusion antigen; not shown: human IgG1 Fc
T2 sequence (looked up): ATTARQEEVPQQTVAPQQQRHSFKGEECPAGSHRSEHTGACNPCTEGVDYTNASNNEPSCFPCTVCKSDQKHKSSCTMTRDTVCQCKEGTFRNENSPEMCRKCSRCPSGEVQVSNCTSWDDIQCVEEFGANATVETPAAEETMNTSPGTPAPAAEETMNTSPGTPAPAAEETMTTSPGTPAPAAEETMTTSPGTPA

[4] = target: TRAIL-R1 on the surface of human tumor cells (human, UniProt O00220 24-468); test: cell-based or functional assay
[5] = target: BSA (bovine serum albumin), negative control (bovine, UniProt P02769 25-607); test: ELISA: plate coated with BSA (control) at 1 µg/ml, HRP goat anti-mouse IgG, TMB
[6] = target: T3, TRAIL-R4-Fc fusion protein (human, UniProt Q9UBN6 56-211); test: ELISA: plate coated with TRAIL-R4-Fc at 1 µg/ml, HRP goat anti-mouse IgG, TMB
T3 construct: The origin of the protein is not described; also called TRAIL-R4-Fc fusion antigen; not shown: human IgG1 Fc
T3 sequence (looked up): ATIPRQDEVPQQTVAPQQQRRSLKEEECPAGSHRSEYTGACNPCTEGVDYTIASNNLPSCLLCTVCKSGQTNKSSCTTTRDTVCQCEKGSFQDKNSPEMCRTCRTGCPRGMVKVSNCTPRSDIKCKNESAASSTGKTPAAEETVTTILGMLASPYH

Chain of BSA (bovine serum albumin), negative control (P02769 25-607 limits assumed): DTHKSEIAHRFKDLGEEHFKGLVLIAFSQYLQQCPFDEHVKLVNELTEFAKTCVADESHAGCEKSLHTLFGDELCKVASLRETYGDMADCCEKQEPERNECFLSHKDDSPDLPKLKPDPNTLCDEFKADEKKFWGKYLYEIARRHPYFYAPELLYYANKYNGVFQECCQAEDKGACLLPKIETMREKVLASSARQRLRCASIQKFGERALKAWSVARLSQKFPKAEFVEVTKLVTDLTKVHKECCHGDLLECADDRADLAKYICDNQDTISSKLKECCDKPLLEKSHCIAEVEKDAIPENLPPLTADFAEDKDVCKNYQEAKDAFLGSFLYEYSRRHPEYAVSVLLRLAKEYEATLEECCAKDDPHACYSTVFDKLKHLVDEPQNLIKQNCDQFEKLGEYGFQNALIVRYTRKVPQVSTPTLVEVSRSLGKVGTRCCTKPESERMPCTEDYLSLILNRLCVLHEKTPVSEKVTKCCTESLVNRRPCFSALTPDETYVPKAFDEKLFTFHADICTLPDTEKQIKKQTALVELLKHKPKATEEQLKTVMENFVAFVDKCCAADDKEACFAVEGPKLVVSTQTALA

B1: CTB007 murine monoclonal antibody against TRAIL-R1 (hybridoma CGMCC 1733) (antibody, V domains shown)
VH: EVQLQQSGAELVKPGASVKLSCTASGFNIKDTYMHWVKQRPEQGLEWIGRIDPANGNTKYDPKFQGKATITADTSSNTAYLQLSSLTSEDTAVYYCAYYYVSNAWFTYWGQGTLVTVSA
VL: DIQMTQSPASLSVSVGETVTITCRASENIYSNLEWYQQKQGKSPQLLVYAATNLADGVPSRFSGSGSGTQYSLKINSLQSEDFGSYYCQHFWGTWTFGGGTKLEIK
notes: Murine monoclonal antibody; also called Anti-TRAIL-R1 (CTB007); CTB007-HRP
For B1, the OD 450 nm/650 nm [1] was 0.026 OD, the binding result [2] was “no binding” and the binding result [3] was “no binding (tested: 1000 ng/ml)”. The “IC50 (ng/ml), killing of Carov 3 cells, ATPLite cell viability” value [4] was 29.5 ng/mL, the “IC50 (ng/ml), killing of Colo205 cells, ATPLite cell viability” value [4] was 6.2 ng/mL and the “IC50 (ng/ml), killing of Du145 cells, ATPLite cell viability” value [4] was 31.2 ng/mL. For the same binder, the “IC50 (ng/ml), killing of H-2122 cells, ATPLite cell viability” value [4] was 25.4 ng/mL, the “IC50 (ng/ml), killing of MDA231 cells, ATPLite cell viability” value [4] was 8.2 ng/mL and the “IC50 (ng/ml), killing of MIAcap cells, ATPLite cell viability” value [4] was 9.5 ng/mL. B1: no binding (tested: 1000 ng/ml) [5]; no binding (tested: 1000 ng/ml) [6].
